{"source": "patent US8173604B2", "about": "“Inhibition of Skp2-cyclin a interaction” (Albert Einstein College of Medicine of Yeshiva University, priority 2006, dated 2012)", "molecules": {"B1": {"name": "Skp2N: Skp2 N-terminus (N terminal 100 residues), GST cleaved (protein)", "chain": "MHVFKTPGPADAMHRKHLQEIPDLSSNVATSFTWGWDSSKTSELLSGMGVSALEKEEPDSENIPQELLSNLGHPESPPRKRLKSKGSDKDFVIVRRPKLN", "modifications": "left off: a dimerising Fc or GST", "notes": "Skp2 N-terminus (N terminal 100 residues), GST cleaved"}}, "key": {"[1]": {"molecular_target": "T1, GST-p21 binding to cyclin A/Cdk2 (Homo sapiens, UniProt P20248)", "T1 construct": "expressed in transfected cells; host or cells: 293T (cyclin A/Cdk2); The GST-p21 plasmid was a gift and the fusion was purified on GSH beads", "assay": "GST pull-down, competition with GST-p21 for binding to cyclin A/Cdk2", "conditions": "increasing amounts of Skp2N", "description": "(§1) GST pull down, p27 ubiquitylation assay, and cyclin A kinase assay. GST fusion proteins were purified on GSH-beads (Amersham), which were then incubated with transfected cell extracts for 1 hour in 4° C. with rocking. The beads were washed three times with lysis buffer (25 mM Hepes pH 7.6, 100 mM KCl, 0.1 mM EDTA, 10 mM MgCl2, 0.1% NP-40, 10% glycerol, 1 mM DTT) before analysis by SDS-PAGE and Western blotting.\nSkp2 competes with p27/p21, but not E2F1, for binding to cyclin A. Whether the apparently distinct Skp2-cyclin A interaction and p27-cyclin A interaction are competitive against each other was next evaluated. […] Skp2N also competed with GST-p21 for binding to cyclin A/Cdk2 (FIG. 6A right). Whether the competition between Skp2 and p27/p21 for cyclin A binding could be observed in vivo with endogenous proteins under physiological conditions was next determined. Since abundant amounts of cyclin A are already bound by Skp2 and very little is bound by p27 or p21 in various cell lines (unpublished results), this issue was addressed from the other direction of competition by testing whether p27/p21 could compete Skp2 away from cyclin A. For this purpose, we treated U2OS cells with actinomycin D to activate p53, which led to a significant increase in p21 protein levels."}, "cyclin A/Cdk2": {"molecular_target": "T2, cyclin A/Cdk2 (Homo sapiens, UniProt P20248+P24941)", "T2 construct": "made in house; host or cells: insect cells (baculovirus)", "assay": "In vitro cyclin A/Cdk2 kinase assay with purified proteins (GST-Rb-C substrate)", "type": "biochemical", "conditions": "80 nM protein added to p27-containing kinase reaction", "description": "Cyclin A/Cdk2 kinase assays were performed as described previously (Ji et al., 2004). Both immuno-purified myc-cyclin A/Cdk2 on beads and GST-purified and eluted GST-cyclin A/Cdk2 (baculovirus vectors for GST-cyclin A and Cdk2 were provided by Brian Dynlacht) were used. The amounts of purified proteins were determined by comparing them with known amounts of standard proteins in Coomassie blue stained gels. Phosphorylation of GST-Rb-C was quantified with the ImageQuant software. The Ki of various proteins was determined by non-linear least squares analysis. […] Actual amounts of proteins in 7.5×10^4 HeLa cells were then determined (for example, the amounts of p27, Skp2, and cyclin A in 7.5×10^4 HeLa cells were determined to be about 0.1, 0.2, and 0.1 pmoles, respectively, at 14 hours post-replating; and about 0.01, 0.1, and 1.0 pmoles, respectively, at 19 hours post-replating).\nFor kinase reactions, insect cell-produced and purified GST-cyclin A/Cdk2 was used at a concentration of ˜3 nM, which was the lowest concentration that yielded readily detectible phosphorylation of GST-Rb-C here. […] Phosphorylation of Rb-C was measured and plotted, and the Ki of these various proteins were determined by non-linear least squares analysis (FIG. 7F). […]\nIt was then determined whether the 4060 peptide could prevent Skp2N from protecting cyclin A/Cdk2 from inhibition by p27. […]"}, "p27-cyclin A interaction": {"molecular_target": "T3, p27-cyclin A interaction (Homo sapiens, UniProt P20248)", "T3 construct": "expressed in transfected cells; host or cells: 293T (cyclin A/Cdk2)", "assay": "GST pull-down, blocking of p27-cyclin A interaction", "type": "binding", "conditions": "GST-p27, myc-cyclin A/Cdk2 transfected 293T cell extracts", "description": "as §1\nSkp2-cyclin A interaction and p27-cyclin A interaction can be blocked by distinct peptides. An important aspect of the RxL-1-IP interaction is that it can be blocked by a short RxL peptide (Adams et al., 1996). If the Skp2-cyclin A/Cdk2 interaction and the p27-cyclin A/Cdk2 interaction are mediated by different sequences on both sides of the interaction, as shown above, it can be predicted that the RxL peptide should not block Skp2-cyclin A interaction. […] Peptide concentrations required for their respective blocking activities were similar for RxL and 4060 peptides.\nSkp2 competes with p27/p21, but not E2F1, for binding to cyclin A. Whether the apparently distinct Skp2-cyclin A interaction and p27-cyclin A interaction are competitive against each other was next evaluated. […] Whether the competition between Skp2 and p27/p21 for cyclin A binding could be observed in vivo with endogenous proteins under physiological conditions was next determined. […]"}, "E2F1-cyclin A binding": {"molecular_target": "T4, E2F1-cyclin A binding (Homo sapiens, UniProt P20248)", "T4 construct": "expressed in transfected cells; host or cells: 293T (cyclin A/Cdk2); The GST-E2F1 plasmid was a gift and the fusion was purified on GSH beads", "assay": "GST pull-down, competition for E2F1-cyclin A binding", "description": "as §1\nWhether Skp2 competes with another RxL protein, E2F1, for cyclin A binding (Krek et al., 1994) was next determined."}}}
{"molecule": "B1", "values": [{"measurement": "Competition with GST-p21 for binding to cyclin A/Cdk2", "setting": "[1]", "value": "competed"}, {"measurement": "Protection of cyclin A/Cdk2 from inhibition by p27", "setting": "cyclin A/Cdk2", "value": "completely reversed"}, {"measurement": "Blocking of p27-cyclin A interaction", "setting": "p27-cyclin A interaction", "value": "progressively diminished"}, {"measurement": "Effect on E2F1-cyclin A binding", "setting": "E2F1-cyclin A binding", "value": "did not affect"}]}
